Reference: article PMC10643666

Molecular target: ZIKV envelope (E) protein, HA-tagged
Assay: co-immunoprecipitation (HA-specific IP) with densitometry of immunoblots
Conditions: HEK 293T cells, lysed 18 h after transfection; n = 4; parent: est. 0.93; read off a plot

Substance	ratio to parent (fold E; mut:WT)
ZIKV prM protein, wild type K60L; Y63S	0.9
ZIKV prM protein, wild type K60L; Y63A	1.7
ZIKV prM protein, wild type R38L; F42S	0.93
ZIKV prM protein, wild type R38L; F42A	1.6
